From patent US20250066499A1 (SUNSHINE GUOJIAN PHARMACEUTICAL SHANGHAI, published 2025)

Columns and labels:
[1] = target: T1, CD73-ND-his (human, UniProt P21589 27-317); assay: ELISA; decline multiple of Top against CD73-ND
T1 construct: Biotinylated and captured on streptavidin in the ELISA
T1 sequence: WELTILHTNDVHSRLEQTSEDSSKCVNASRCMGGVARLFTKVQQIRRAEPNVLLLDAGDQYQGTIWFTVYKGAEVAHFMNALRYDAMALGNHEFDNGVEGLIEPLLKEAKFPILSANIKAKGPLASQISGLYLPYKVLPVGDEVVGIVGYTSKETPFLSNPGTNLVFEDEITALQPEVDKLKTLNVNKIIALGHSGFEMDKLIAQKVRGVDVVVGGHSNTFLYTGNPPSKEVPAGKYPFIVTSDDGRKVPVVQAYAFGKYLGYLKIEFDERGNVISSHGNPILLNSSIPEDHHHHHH
Procedure: (§1) The ELISA plates were coated with SA protein diluted to 1.5 μg/mL in coating buffer (50 mM carbonate coating buffer, pH 9.6) and incubated overnight at 4° C. The supernatant was discarded, and the plates were washed three times with PBST. Then, 5% skimmed milk powder prepared with PBS was added for blocking and the plates were incubated for 2 h at 37° C. After washing the plates once with PBST, CD73-biotin protein (prepared by biotinylating CD73-His protein according to the EZ-Link NHS-Biotin Reagent instructions) was diluted to 0.5 μg/mL and added at 100 μL/well for incubation at room temperature for 1 h. The plates were washed three times with PBST, and the prepared murine-derived monoclonal antibodies against human CD73 were serially diluted with 1% BSA buffer prepared with PBST and added to the ELISA plates at 100 μl/well. The plates were incubated at 37° C. for 1 h. After washing the plates three times with PBST, HRP-labeled goat anti-mouse IgG secondary antibody was added and the plates were incubated for 30 min at 37° C. After washing the plates three times with PBST, the residual droplets were patted dry on absorbent paper as much as possible. Then, 100 μl of TMB color developing solution was added to each well, and the plates were incubated in the dark at room temperature for 5 min for color development. Subsequently, 50 μl of 2M H₂SO₄ stop solution was added to each well to terminate the substrate reaction. The OD values were read at 450 nm using a multimode microplate reader to analyze the binding ability of the tested antibodies to the target antigen human CD73-His.
(§2) Referring to the experimental method in Example 3, the affinity of 48A11-HuV33 for various mutant proteins of CD73-ND was determined. The SA protein was diluted to 1 μg/mL for coating the ELISA plates, and the biotinylated CD73 protein (CD73-biotin) was used at a concentration of 0.1 μg/mL.

[2] = target: T2, CD73-ND-P139A (human, UniProt P21589 27-317); assay: ELISA; decline multiple of Top against CD73-ND
T2 construct: Alanine mutant of CD73-ND
T2 sequence: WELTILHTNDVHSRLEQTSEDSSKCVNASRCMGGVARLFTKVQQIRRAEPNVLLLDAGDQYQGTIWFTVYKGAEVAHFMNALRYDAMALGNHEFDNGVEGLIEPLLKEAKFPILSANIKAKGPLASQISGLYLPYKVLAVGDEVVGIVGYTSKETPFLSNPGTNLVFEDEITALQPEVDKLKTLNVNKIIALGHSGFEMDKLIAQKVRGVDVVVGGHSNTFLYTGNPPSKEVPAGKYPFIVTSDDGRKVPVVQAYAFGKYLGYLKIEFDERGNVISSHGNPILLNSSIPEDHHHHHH
Procedure: as §1, §2

[3] = target: T3, CD73-ND-V140A (human, UniProt P21589 27-317); assay: ELISA; decline multiple of Top against CD73-ND
T3 construct: Alanine mutant of CD73-ND
T3 sequence: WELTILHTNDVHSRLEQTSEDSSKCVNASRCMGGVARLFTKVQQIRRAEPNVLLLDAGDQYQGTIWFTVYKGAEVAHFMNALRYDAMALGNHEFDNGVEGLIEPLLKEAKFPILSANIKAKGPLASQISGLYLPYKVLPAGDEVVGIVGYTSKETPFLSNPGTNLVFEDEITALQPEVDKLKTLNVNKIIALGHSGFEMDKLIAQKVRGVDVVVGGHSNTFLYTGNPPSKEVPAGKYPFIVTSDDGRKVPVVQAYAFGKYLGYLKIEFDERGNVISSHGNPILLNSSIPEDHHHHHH
Procedure: as §1, §2

[4] = target: T4, CD73-ND-D142A (human, UniProt P21589 27-317); assay: ELISA; decline multiple of Top against CD73-ND
T4 construct: Alanine mutant of CD73-ND
T4 sequence: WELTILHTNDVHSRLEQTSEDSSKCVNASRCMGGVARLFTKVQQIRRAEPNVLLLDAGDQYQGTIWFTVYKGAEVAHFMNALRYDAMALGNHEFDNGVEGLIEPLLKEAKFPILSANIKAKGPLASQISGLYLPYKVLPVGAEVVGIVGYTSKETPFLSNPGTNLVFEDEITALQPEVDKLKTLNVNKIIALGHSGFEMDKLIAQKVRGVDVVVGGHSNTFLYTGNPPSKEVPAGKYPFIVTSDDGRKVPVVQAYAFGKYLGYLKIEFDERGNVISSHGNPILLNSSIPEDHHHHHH
Procedure: as §1, §2

[5] = target: T5, CD73-ND-L184A (human, UniProt P21589 27-317); assay: ELISA; decline multiple of Top against CD73-ND
T5 construct: Alanine mutant of CD73-ND
T5 sequence: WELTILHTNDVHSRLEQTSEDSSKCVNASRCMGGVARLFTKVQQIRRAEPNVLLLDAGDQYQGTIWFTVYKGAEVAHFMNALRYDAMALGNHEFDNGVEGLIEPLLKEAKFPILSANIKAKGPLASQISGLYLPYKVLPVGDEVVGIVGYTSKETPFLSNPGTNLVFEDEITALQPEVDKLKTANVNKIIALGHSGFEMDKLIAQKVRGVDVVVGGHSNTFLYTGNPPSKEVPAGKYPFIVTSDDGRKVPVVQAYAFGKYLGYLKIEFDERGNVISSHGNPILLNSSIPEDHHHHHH
Procedure: as §1, §2

[6] = target: T3, CD73-ND-V140A; assay: ELISA; decline multiple of EC50 against CD73-ND
Procedure: as §1, §2

[7] = target: T6, CD73-CD-his (human, UniProt P21589 337-549); assay: ELISA as in Example 3, antigen CD73-CD-his, antibody titrated, absorbance 450 nm
T6 construct: it fits residue S549 of P21589 (27+522)
T6 sequence: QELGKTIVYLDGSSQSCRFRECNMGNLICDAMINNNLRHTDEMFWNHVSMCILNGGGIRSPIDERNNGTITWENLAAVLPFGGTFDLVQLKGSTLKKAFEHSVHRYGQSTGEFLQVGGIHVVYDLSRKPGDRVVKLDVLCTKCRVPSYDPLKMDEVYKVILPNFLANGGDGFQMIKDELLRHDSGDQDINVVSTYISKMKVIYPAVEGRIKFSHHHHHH

B1: 48A11-HuV33 (antibody, human IgG4, V domains shown)
VH: QVQLVQSGAEVKKPGASVKVSCKASGYTFTSYWMHWVRQAPGQGLEWIGEINPSIGRTNYNEKFKSRVTLTRDTSTSTAYMELSSLRSEDTAVYYCARRVYGTMDYWGQGTLVTVSS
VL: DIQMTQSPSSLSASVGDRVTITCKASQDINSYLSWFQQKPGKSPKLLIYRANIWVDGVPSRFSGSGSGQDYTFTISSLQPEDIATYYCLQYDELYTFGQGTKVEIK
notes: Humanized
Ratio(Top) [1]: 1 fold | Ratio(Top) [2]: 2.3 fold | Ratio(Top) [3]: 1 fold | Ratio(Top) [4]: 1.1 fold | Ratio(Top) [5]: 1.2 fold | Ratio(EC50) [6]: 0.6 fold | binding result [7]: no binding (tested: 10 nM)
